Data: PMC1885664 (Nucleic Acids Research, 2007)

B1: P. aeruginosa RdgC K146A mutant (natural protein, Pseudomonas aeruginosa PAO1, UniProt Q9HYX7 1-306, looked up)
chain: MWFRNLLVYRLTQDLQLDADSLEKALGEKSARPCASQELTTYGFTAPFGKGPDAPLVHVSQDFFLISARKEERILPGSVVRDALKEKVDEIEAQQMRKVYKKERDQLKDEIVQTLLPRAFIRRSSTFAAIAPSLGLILVDSASAKAAEDLLSTLREALGSLPVRPLSVKVAPTATLTDWVKTQEAAGDFHVLDECELRDTHEDGGVVRCKRQDLTSEEIQLHLTAGKLVTQLSLAWSDKLSFVLDDKLAVKRLRFEDLLQEQAEKDGGEDALGQLDASFTLMMLTFAEFLPALFEALGGEEIPQGV
B2: P. aeruginosa RdgC R208A mutant (natural protein, Pseudomonas aeruginosa PAO1, UniProt Q9HYX7 1-306, looked up)
chain: MWFRNLLVYRLTQDLQLDADSLEKALGEKSARPCASQELTTYGFTAPFGKGPDAPLVHVSQDFFLISARKEERILPGSVVRDALKEKVDEIEAQQMRKVYKKERDQLKDEIVQTLLPRAFIRRSSTFAAIAPSLGLILVDSASAKKAEDLLSTLREALGSLPVRPLSVKVAPTATLTDWVKTQEAAGDFHVLDECELRDTHEDGGVVACKRQDLTSEEIQLHLTAGKLVTQLSLAWSDKLSFVLDDKLAVKRLRFEDLLQEQAEKDGGEDALGQLDASFTLMMLTFAEFLPALFEALGGEEIPQGV
B3: P. aeruginosa RdgC K70D mutant (natural protein, Pseudomonas aeruginosa PAO1, UniProt Q9HYX7 1-306, looked up)
chain: MWFRNLLVYRLTQDLQLDADSLEKALGEKSARPCASQELTTYGFTAPFGKGPDAPLVHVSQDFFLISARDEERILPGSVVRDALKEKVDEIEAQQMRKVYKKERDQLKDEIVQTLLPRAFIRRSSTFAAIAPSLGLILVDSASAKKAEDLLSTLREALGSLPVRPLSVKVAPTATLTDWVKTQEAAGDFHVLDECELRDTHEDGGVVRCKRQDLTSEEIQLHLTAGKLVTQLSLAWSDKLSFVLDDKLAVKRLRFEDLLQEQAEKDGGEDALGQLDASFTLMMLTFAEFLPALFEALGGEEIPQGV
B4: P. aeruginosa RdgC R211D mutant (natural protein, Pseudomonas aeruginosa PAO1, UniProt Q9HYX7 1-306, looked up)
chain: MWFRNLLVYRLTQDLQLDADSLEKALGEKSARPCASQELTTYGFTAPFGKGPDAPLVHVSQDFFLISARKEERILPGSVVRDALKEKVDEIEAQQMRKVYKKERDQLKDEIVQTLLPRAFIRRSSTFAAIAPSLGLILVDSASAKKAEDLLSTLREALGSLPVRPLSVKVAPTATLTDWVKTQEAAGDFHVLDECELRDTHEDGGVVRCKDQDLTSEEIQLHLTAGKLVTQLSLAWSDKLSFVLDDKLAVKRLRFEDLLQEQAEKDGGEDALGQLDASFTLMMLTFAEFLPALFEALGGEEIPQGV
B5: P. aeruginosa RdgC R252A mutant (natural protein, Pseudomonas aeruginosa PAO1, UniProt Q9HYX7 1-306, looked up)
chain: MWFRNLLVYRLTQDLQLDADSLEKALGEKSARPCASQELTTYGFTAPFGKGPDAPLVHVSQDFFLISARKEERILPGSVVRDALKEKVDEIEAQQMRKVYKKERDQLKDEIVQTLLPRAFIRRSSTFAAIAPSLGLILVDSASAKKAEDLLSTLREALGSLPVRPLSVKVAPTATLTDWVKTQEAAGDFHVLDECELRDTHEDGGVVRCKRQDLTSEEIQLHLTAGKLVTQLSLAWSDKLSFVLDDKLAVKALRFEDLLQEQAEKDGGEDALGQLDASFTLMMLTFAEFLPALFEALGGEEIPQGV
B6: Pseudomonas aeruginosa RdgC (recombination-associated DNA-binding protein), wild type (natural protein, Pseudomonas aeruginosa PAO1, UniProt Q9HYX7 1-306, looked up)
chain: MWFRNLLVYRLTQDLQLDADSLEKALGEKSARPCASQELTTYGFTAPFGKGPDAPLVHVSQDFFLISARKEERILPGSVVRDALKEKVDEIEAQQMRKVYKKERDQLKDEIVQTLLPRAFIRRSSTFAAIAPSLGLILVDSASAKKAEDLLSTLREALGSLPVRPLSVKVAPTATLTDWVKTQEAAGDFHVLDECELRDTHEDGGVVRCKRQDLTSEEIQLHLTAGKLVTQLSLAWSDKLSFVLDDKLAVKRLRFEDLLQEQAEKDGGEDALGQLDASFTLMMLTFAEFLPALFEALGGEEIPQGV
B7: P. aeruginosa RdgC F120A mutant (natural protein, Pseudomonas aeruginosa PAO1, UniProt Q9HYX7 1-306, looked up)
chain: MWFRNLLVYRLTQDLQLDADSLEKALGEKSARPCASQELTTYGFTAPFGKGPDAPLVHVSQDFFLISARKEERILPGSVVRDALKEKVDEIEAQQMRKVYKKERDQLKDEIVQTLLPRAAIRRSSTFAAIAPSLGLILVDSASAKKAEDLLSTLREALGSLPVRPLSVKVAPTATLTDWVKTQEAAGDFHVLDECELRDTHEDGGVVRCKRQDLTSEEIQLHLTAGKLVTQLSLAWSDKLSFVLDDKLAVKRLRFEDLLQEQAEKDGGEDALGQLDASFTLMMLTFAEFLPALFEALGGEEIPQGV
B8: P. aeruginosa RdgC Q212A mutant (natural protein, Pseudomonas aeruginosa PAO1, UniProt Q9HYX7 1-306, looked up)
chain: MWFRNLLVYRLTQDLQLDADSLEKALGEKSARPCASQELTTYGFTAPFGKGPDAPLVHVSQDFFLISARKEERILPGSVVRDALKEKVDEIEAQQMRKVYKKERDQLKDEIVQTLLPRAFIRRSSTFAAIAPSLGLILVDSASAKKAEDLLSTLREALGSLPVRPLSVKVAPTATLTDWVKTQEAAGDFHVLDECELRDTHEDGGVVRCKRADLTSEEIQLHLTAGKLVTQLSLAWSDKLSFVLDDKLAVKRLRFEDLLQEQAEKDGGEDALGQLDASFTLMMLTFAEFLPALFEALGGEEIPQGV
B9: P. aeruginosa RdgC R198A mutant (natural protein, Pseudomonas aeruginosa PAO1, UniProt Q9HYX7 1-306, looked up)
chain: MWFRNLLVYRLTQDLQLDADSLEKALGEKSARPCASQELTTYGFTAPFGKGPDAPLVHVSQDFFLISARKEERILPGSVVRDALKEKVDEIEAQQMRKVYKKERDQLKDEIVQTLLPRAFIRRSSTFAAIAPSLGLILVDSASAKKAEDLLSTLREALGSLPVRPLSVKVAPTATLTDWVKTQEAAGDFHVLDECELADTHEDGGVVRCKRQDLTSEEIQLHLTAGKLVTQLSLAWSDKLSFVLDDKLAVKRLRFEDLLQEQAEKDGGEDALGQLDASFTLMMLTFAEFLPALFEALGGEEIPQGV
B10: P. aeruginosa RdgC R122D mutant (natural protein, Pseudomonas aeruginosa PAO1, UniProt Q9HYX7 1-306, looked up)
chain: MWFRNLLVYRLTQDLQLDADSLEKALGEKSARPCASQELTTYGFTAPFGKGPDAPLVHVSQDFFLISARKEERILPGSVVRDALKEKVDEIEAQQMRKVYKKERDQLKDEIVQTLLPRAFIDRSSTFAAIAPSLGLILVDSASAKKAEDLLSTLREALGSLPVRPLSVKVAPTATLTDWVKTQEAAGDFHVLDECELRDTHEDGGVVRCKRQDLTSEEIQLHLTAGKLVTQLSLAWSDKLSFVLDDKLAVKRLRFEDLLQEQAEKDGGEDALGQLDASFTLMMLTFAEFLPALFEALGGEEIPQGV
B11: P. aeruginosa RdgC R81D mutant (natural protein, Pseudomonas aeruginosa PAO1, UniProt Q9HYX7 1-306, looked up)
chain: MWFRNLLVYRLTQDLQLDADSLEKALGEKSARPCASQELTTYGFTAPFGKGPDAPLVHVSQDFFLISARKEERILPGSVVDDALKEKVDEIEAQQMRKVYKKERDQLKDEIVQTLLPRAFIRRSSTFAAIAPSLGLILVDSASAKKAEDLLSTLREALGSLPVRPLSVKVAPTATLTDWVKTQEAAGDFHVLDECELRDTHEDGGVVRCKRQDLTSEEIQLHLTAGKLVTQLSLAWSDKLSFVLDDKLAVKRLRFEDLLQEQAEKDGGEDALGQLDASFTLMMLTFAEFLPALFEALGGEEIPQGV
B12: P. aeruginosa RdgC R4A mutant (natural protein, Pseudomonas aeruginosa PAO1, UniProt Q9HYX7 1-306, looked up)
chain: MWFANLLVYRLTQDLQLDADSLEKALGEKSARPCASQELTTYGFTAPFGKGPDAPLVHVSQDFFLISARKEERILPGSVVRDALKEKVDEIEAQQMRKVYKKERDQLKDEIVQTLLPRAFIRRSSTFAAIAPSLGLILVDSASAKKAEDLLSTLREALGSLPVRPLSVKVAPTATLTDWVKTQEAAGDFHVLDECELRDTHEDGGVVRCKRQDLTSEEIQLHLTAGKLVTQLSLAWSDKLSFVLDDKLAVKRLRFEDLLQEQAEKDGGEDALGQLDASFTLMMLTFAEFLPALFEALGGEEIPQGV

How the values were obtained:
SEC = molecular target: the molecule itself; assay: SEC
crystal structure = molecular target: the molecule itself; assay: crystal structure

Protein | binding result (SEC) | stoichiometry N (crystal structure)
B1 | binds | 
B2 | binds | 
B3 | binds | 
B4 | binds | 
B5 | binds | 
B6 |  | 2
B7 | binds | 
B8 | binds | 
B9 | binds | 
B10 | binds | 
B11 | binds | 
B12 | binds | 
